Measured values as given in US20120021972A1 (CADILA HEALTHCARE, published 2012).
Starred links: 1 amine or outer side, 2 acyl side, 3 side chain; linkers in the order of their positions; H or OH if unused. Non-standard residues stand in square brackets, D forms with d. No end group written: not given here. *: point of attachment. NMe2F‑APPA = N-methyl-2-amino-5-(2-fluorophenyl)pentanoic acid, CN([C@@H](CCCc1ccccc1F)C(=O)[*:2])[*:1]; 2,4‑diF‑APPA = 2-amino-5-(2,4-difluorophenyl)pentanoic acid, O=C([C@H](CCCc1ccc(F)cc1F)N[*:1])[*:2]; AMCB = 2-amino-5-(4-chloro-2-methylphenyl)pentanoic acid, Cc1cc(Cl)ccc1CCC[C@H](N[*:1])C(=O)[*:2]; ACPP = 2-amino-5-(3-chlorophenyl)pentanoic acid, O=C([C@H](CCCc1cccc(Cl)c1)N[*:1])[*:2]; 2F,4CF3‑APPA = 2-amino-5-(2-fluoro-4-(trifluoromethyl)phenyl)pentanoic acid; Bip(2'-Et-4'-OMe) = CCc1cc(OC)ccc1-c1ccc(C[C@H](N)C(=O)O)cc1; Leu(5,5,5,5',5',5'-F6) = N[C@@H](CC(C(F)(F)F)C(F)(F)F)C(=O)O; Nva(5-(3,5-Me2Ph)) = Cc1cc(C)cc(CCC[C@H](N)C(=O)O)c1; 2F‑APPA = 2-amino-5-(2-fluorophenyl)pentanoic acid; αMePhe(2-F) = C[C@](N)(Cc1ccccc1F)C(=O)O; NMeBip(OMe) = N-methylated Bip(OMe); hhPhe = N[C@@H](CCCc1ccccc1)C(=O)O; 2,4‑diCl‑APPA = not defined here; NMeD = CN[C@@H](CC(=O)O)C(=O)O; aThr = C[C@H](O)[C@H](N)C(=O)O; αMeP = C[C@@]1(C(=O)O)CCCN1; NMeAPPA = not defined here; Ac5c = NC1(C(=O)O)CCCC1; CNB = not defined here; Aib = CC(C)(N)C(=O)O; Moc = COC(=O)*

Target: human glucagon receptor (human, UniProt P47871 26-477)
Assay: cell-based or functional assay

| Binder | inhibition of cAMP production, 1 nM [pmol/ml/µg prt] | inhibition of cAMP production, 10 nM [pmol/ml/µg prt] | inhibition of cAMP production, 100 nM [pmol/ml/µg prt] | inhibition of cAMP production, 1 µM [pmol/ml/µg prt] | inhibition of cAMP production, 10 µM [pmol/ml/µg prt] |
| --- | --- | --- | --- | --- | --- |
| H-HSQGTFTSD[Bip(2'-Et-4'-OMe)][hhPhe]-NH2 [Seq. ID. No. 5: HSQGTFTSD-Bip(OMe)-(APPA)] | 6 | 5 | 3 | 0 | 0 |
| H[αMeP]QGTFTSD[Bip(2'-Et-4'-OMe)][hhPhe] [Seq. ID. No. 9: H-(α-Me-Pro)-QGTFTSD-Bip(OMe)-(APPA)] | 5 | 3 | 0 | 0 | 0 |
| H[Ac5c]QGTFTSD[Bip(2'-Et-4'-OMe)][Nva(5-(3,5-Me2Ph))] [Seq. ID. No. 26: H-(APP)-QGTFTSD-Bip(OMe)-(ADMP)] | 15 | 12 | 8 | 4 | 2 |
| H[Ac5c]QGTFTSD[Bip(2'-Et-4'-OMe)][AMCB] [Seq. ID. No. 28: H-(APP)-QGTFTSD-Bip(OMe)-(AMCB)] | 14 | 11 | 7 | 3 | 0 |
| H[Aib][CNB]GTFTSD[Bip(2'-Et-4'-OMe)][ACPP] (reading uncertain) [Seq. ID. No. 31: H-Aib-(CNB)-GTFTSD-Bip(OMe)-(ACPP)] | 6 | 5 | 2 | 0 | 0 |
| HSQGTFTSD[Bip(2'-Et-4'-OMe)][2F,4CF3‑APPA] [Seq. ID. No. 49: HSQGTFTSD-Bip(OMe)-(2F, 4CF3-APPA)] | 10 | 8 | 6 | 2 | 0 |
| HSQGTFTSD[Bip(2'-Et-4'-OMe)][2,4‑diCl‑APPA] (reading uncertain) [Seq. ID. No. 51: HSQGTFTSD-Bip(OMe)-(2,4-diCl-APPA)] | 5 | 3 | 0 | 0 | 0 |
| H[Aib]QGTFTSD[Bip(2'-Et-4'-OMe)][2F,4CF3‑APPA] [Seq. ID. No. 65: H-Aib-QGTFTSD-Bip(OMe)-(2F,4CF3-APPA)] | 10 | 8 | 6 | 4 | 1 |
| H[Aib][CNB]GTFTSD[Bip(2'-Et-4'-OMe)][2,4‑diF‑APPA] (reading uncertain) [Seq. ID. No. 78: H-Aib-(CNB)-GTFTSD-Bip(OMe)-(2,4-diF-APPA)] | 22 | 21 | 20 | 18 | 18 |
| H[Aib][CNB]G[aThr][αMePhe(2-F)][aThr]SD[Bip(2'-Et-4'-OMe)][NMe2F‑APPA] (reading uncertain) [Seq. ID. No. 132: H-Aib-(CNB)-G-T(allo)-(α-Me-2F-Phe)-T(allo)-SD-Bip(OMe)-((NMe)(2F-APPA))] | 15 | 12 | 8 | 4 | 2 |
| H[Aib][CNB]G[aThr][αMePhe(2-F)][aThr]SD[NMeBip(OMe)][NMeAPPA] (reading uncertain) [Seq. ID. No. 142: H-Aib-(CNB)-G-T(allo)-(α-Me-2F-Phe)-T(allo)-SD-((NMe)Bip(OMe))-((NMe)(APPA))] | 10 | 8 | 6 | 2 | 0 |
| Moc-H[Aib]QG[aThr][αMePhe(2-F)][aThr]S[NMeD][NMeBip(OMe)][NMeAPPA] (reading uncertain) | 10 | 8 | 6 | 4 | 1 |
| Moc-H[Aib]QGT[αMePhe(2-F)]TSD[Bip(2'-Et-4'-OMe)][hhPhe] (also: thioamide bonds between residues 9-10 and 10-11) [Seq. ID. No. 170: CH3OCO-H-Aib-QGT-(α-Me-2F-Phe)-TSD-(C═S)-Bip(OMe)-(C═S)-(APPA)] | 6 | 5 | 2 | 0 | 0 |
| Moc-H[Aib]QGT[αMePhe(2-F)]TSD[Bip(2'-Et-4'-OMe)][2F‑APPA] (also: thioamide bonds between residues 9-10 and 10-11) [Seq. ID. No. 172: CH3OCO-H-Aib-QGT-(α-Me-2F-Phe)-TSD-(C═S)-Bip(OMe)-(C═S)-(2F-APPA)] | 4 | 2 | 0 | 0 | 0 |
| H[Aib]QG[aThr][αMePhe(2-F)][aThr]SD[Bip(2'-Et-4'-OMe)][hhPhe] (also: thioamide bonds between residues 9-10 and 10-11) [Seq. ID. No. 177: H-Aib-QG-T(allo)-(α-Me-2F-Phe)-T(allo)-SD-(C═S)-Bip(OMe)-(C═S)-(APPA)] | 0 | 0 | 0 | 0 | 0 |
| Moc-H[Aib]QG[aThr][αMePhe(2-F)][aThr]SD[Bip(2'-Et-4'-OMe)][2F‑APPA] (also: reduced (CH2) bond between 10 and 11) [Seq. ID. No. 188: CH3OCO-H-Aib-QG-T(allo)-(α-Me-2F-Phe)-T(allo)-SD-Bip(OMe)-(CH2)-(2F-APPA)] | 5 | 3 | 1 | 0 | 0 |
| H[Aib]QG[aThr][αMePhe(2-F)][aThr]SD[Bip(2'-Et-4'-OMe)][hhPhe] (also: reduced (CH2) bond between 10 and 11) [Seq. ID. No. 189: H-Aib-QG-T(allo)-(α-Me-2F-Phe)-T(allo)-SD-Bip(OMe)-(CH2)-(APPA)] | 3 | 1 | 0 | 0 | 0 |
| H[Aib]QG[aThr][αMePhe(2-F)][aThr]SD[Bip(2'-Et-4'-OMe)][2F‑APPA] (also: reduced (CH2) bond between 10 and 11) [Seq. ID. No. 191: H-Aib-QG-T(allo)-(α-Me-2F-Phe)-T(allo)-SD-Bip(OMe)-(CH2)-(2F-APPA)] | 4 | 2 | 2 | 0 | 0 |
| H[Aib][CNB]G[aThr][αMePhe(2-F)][aThr]SD[Bip(2'-Et-4'-OMe)][2F‑APPA] (reading uncertain; also: reduced (CH2) bond between 10 and 11) [Seq. ID. No. 192: H-Aib-(CNB)-G-T(allo)-(α-Me-2F-Phe)-T(allo)-SD-Bip(OMe)-(CH2)-(2F-APPA)] | 4 | 2 | 0 | 0 | 0 |
| Ac-H[Aib]QGT[αMePhe(2-F)]TSD[Bip(2'-Et-4'-OMe)][2F‑APPA] (also: reduced (CH2) bonds between 9-10 and 10-11) [Seq. ID. No. 195: CH3CO-H-Aib-QGT-(α-Me-2F-Phe)-TSD-(CH2)-Bip(OMe)-(CH2)-(2F-APPA)] | 15 | 12 | 8 | 4 | 2 |
| Ac-H[Aib]QG[aThr][αMePhe(2-F)][aThr]SD[Bip(2'-Et-4'-OMe)][hhPhe] (also: reduced (CH2) bonds between 9-10 and 10-11) [Seq. ID. No. 197: CH3CO-H-Aib-QG-T(allo)-(α-Me-2F-Phe)-T(allo)-SD-(CH2)-Bip(OMe)-(CH2)-(APPA)] | 14 | 11 | 7 | 3 | 0 |
| Ac-H[Aib]QG[aThr][αMePhe(2-F)][aThr]SD[Bip(2'-Et-4'-OMe)][2F‑APPA] (also: reduced (CH2) bonds between 9-10 and 10-11) [Seq. ID. No. 199: CH3CO-H-Aib-QG-T(allo)-(α-Me-2F-Phe)-T(allo)-SD-(CH2)-Bip(OMe)-(CH2)-(2F-APPA)] | 4 | 3 | 0 | 0 | 0 |
| Moc-H[Aib][CNB]GT[αMePhe(2-F)]TSD[Bip(2'-Et-4'-OMe)][2F‑APPA] (reading uncertain) [Seq. ID. No. 208: CH3OCO-H-Aib-(CNB)-GT-(α-Me-2F-Phe)-TSD-Bip(OMe)-(2F-APPA)] | 5 | 3 | 1 | 0 | 0 |
| Ac-H[Aib][Leu(5,5,5,5',5',5'-F6)]GT[αMePhe(2-F)]TSD[Bip(2'-Et-4'-OMe)][2F‑APPA] [Seq. ID. No. 212: CH3CO-H-Aib-(Hfl)-GT-(α-Me-2F-Phe)-TSD-Bip(OMe)-(2F-APPA)] | 10 | 8 | 6 | 4 | 1 |
| H[Aib][Leu(5,5,5,5',5',5'-F6)]G[aThr][αMePhe(2-F)][aThr]SD[Bip(2'-Et-4'-OMe)][2F‑APPA] (also: thioamide (C═S) bond Z10-Z11) [Seq. ID. No. 218: H-Aib-(Hfl)-G-T(allo)-(α-Me-2F-Phe)-T(allo)-SD-Bip(OMe)-(C═S)-(2F-APPA)] | 9 | 6 | 5 | 3 | 0 |
